Source: PMC8244513 (Current Research in Structural Biology, 2020)

Target: the molecule itself
Assay: native gel or EMSA

B1: ZnT8B-G3H6 (amino-terminal truncated, 35 kDa isoform of human zinc transporter ZnT8 / SLC30A8) (natural protein)
chain: MYHCHSGSKPTEKGANEYAYAKWKLCSASAICFIFMIAEVVGGHIAGSLAVVTDAAHLLIDLTSFLLSLFSLWLSSKPPSKRLTFGWHRAEILGALLSILCIWVVTGVLVYLACERLLYPDYQIQATVMIIVSSCAVAANIVLTVVLHQRCLGHNHKEVQANASVRAAFVHALGDLFQSISVLISALIIYFKPEYKIADPICTFIFSILVLASTITILKDFSILLMEGVPKSLNYSGVKELILAVDGVLSVHSLHIWSLTMNQVILSAHVATAASRDSQVVRREIAKALSKSFTMHSLTIQMESPVDQDPDCLFCEDPCD
stoichiometry N: 2
